The results in this text go back to publication PMC10349056, “The combined action of the intracellular regions regulates FGFR2 kinase activity” (Communications Biology, 2023).

Experiment in all cases: MST; JM labelled with Atto 488, serial dilutions of KD titrated, 25 °C; 20 mM HEPES, 150 mM NaCl, 1 mM TCEP, 0.01% Tween 20, pH 7.5; the text calls the constant of KD^pY1 apparent (Kd,app)
Common to all, as to conditions: both partners purified

The target in assay [1] is T1, FGFR2 kinase domain K518I (catalytically inactive, non-phosphorylatable) (UniProt P21802-3 465-764, K518I).
T1 construct: FGFR2 (IIIb isoform) kinase domain, residues 465-764; numbers count on: FGFR2IIIb (C1 isoform, 822 residues); also called KD^K518I; source: E. coli BL21(DE3), purified (Talon, Superdex 75)
T1 sequence (P21802 464-763 K517I): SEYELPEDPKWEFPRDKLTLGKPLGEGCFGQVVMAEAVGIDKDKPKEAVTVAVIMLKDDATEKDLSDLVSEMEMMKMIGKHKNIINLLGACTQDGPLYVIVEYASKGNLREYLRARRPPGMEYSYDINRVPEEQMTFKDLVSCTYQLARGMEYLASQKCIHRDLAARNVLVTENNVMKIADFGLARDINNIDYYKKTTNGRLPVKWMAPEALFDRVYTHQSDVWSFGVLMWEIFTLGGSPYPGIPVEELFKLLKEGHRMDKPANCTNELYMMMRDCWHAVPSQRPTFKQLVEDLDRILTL

Assay [2] has as its target T2, FGFR2 kinase domain, phosphorylation state pY2 (UniProt P21802-3 465-764, Y467F (worked out from the printed order of phosphorylation) | Y589F (worked …, phosphotyrosine at 657 and 587)).
T2 construct: FGFR2 (IIIb isoform) kinase domain, residues 465-764; numbers count on: FGFR2IIIb (C1 isoform, 822 residues); also called KD^pY2; source: E. coli BL21(DE3), purified (Talon, Superdex 75)

The target in assay [3] is T3, FGFR2 kinase domain, phosphorylation state pY4 (UniProt P21802-3 465-764, Y658F (worked out from the printed order of phosphorylation) | Y734F (worked …, phosphotyrosine at 657, 587, 467 and 589)).
T3 construct: FGFR2 (IIIb isoform) kinase domain, residues 465-764; numbers count on: FGFR2IIIb (C1 isoform, 822 residues); also called KD^pY4; source: E. coli BL21(DE3), purified (Talon, Superdex 75)
T3 sequence (P21802 464-763 Y657F/Y733F): as the sequence (P21802 464-763 K517I) above, with I54K, Y194F, Y270F counted along it

The target of assay [4] is T4, FGFR2 kinase domain, phosphorylation state pY5 (UniProt P21802-3 465-764, Y734F (worked out from the printed order of phosphorylation), phosphotyrosine at 657, 587, 467, 589 and 658).
T4 construct: FGFR2 (IIIb isoform) kinase domain, residues 465-764; numbers count on: FGFR2IIIb (C1 isoform, 822 residues); also called KD^pY5; source: E. coli BL21(DE3), purified (Talon, Superdex 75)
T4 sequence (P21802 464-763 Y733F): as the sequence (P21802 464-763 K517I) above, with I54K, Y270F counted along it

Where no end group is shown, it is not given here.

T2 sequence (P21802 464-763 Y466F/Y588F/Y657F/Y733F): as the sequence (P21802 464-763 K517I) above, with Y3F, I54K, Y125F, Y194F, Y270F counted along it

B1: FGFR2 juxtamembrane region (407-462), labelled with Atto 488 (peptide, UniProt P21802-3 407-462, looked up)
chain: KPDFSSQPAVHKLTKRIPLRRQVTVSAESSSSMNSNTPLVRITTRLSSTADTPMLA
modifications: also: labelled with Atto 488
notes: FGFR2 (IIIb isoform) juxtamembrane region, residues 407-462; numbers count on: FGFR2IIIb (C1 isoform, 822 residues); also called JM; 407Juxtamembrane region462; source: synthetic peptide, bought: Genscript
In the case of B1, the Kd came out at 13.4 ± 0.994 µM in assay [1], 6.98 ± 0.877 µM in assay [2], 10.2 ± 1.33 µM in assay [3] and 22.5 ± 1.8 µM in assay [4].
